For test [1], the target named is T1, BSA (UniProt P02769 25-607).
T1 construct: also called bovine serum albumin; immobilized BSA
Briefly: indirect ELISA heat map, hIgG subtracted. Background: In an ELISA, binding on a coated surface is turned into a signal by an enzyme label.

Test [2] deals with T1, BSA. Briefly: indirect ELISA heat map, hIgG subtracted. The source holds these as a separate data set.

Residue numbers refer to the chain shown, from its start. Where two headings read alike, the source gives them in different places.

T1 sequence (P02769 25-607 limits assumed): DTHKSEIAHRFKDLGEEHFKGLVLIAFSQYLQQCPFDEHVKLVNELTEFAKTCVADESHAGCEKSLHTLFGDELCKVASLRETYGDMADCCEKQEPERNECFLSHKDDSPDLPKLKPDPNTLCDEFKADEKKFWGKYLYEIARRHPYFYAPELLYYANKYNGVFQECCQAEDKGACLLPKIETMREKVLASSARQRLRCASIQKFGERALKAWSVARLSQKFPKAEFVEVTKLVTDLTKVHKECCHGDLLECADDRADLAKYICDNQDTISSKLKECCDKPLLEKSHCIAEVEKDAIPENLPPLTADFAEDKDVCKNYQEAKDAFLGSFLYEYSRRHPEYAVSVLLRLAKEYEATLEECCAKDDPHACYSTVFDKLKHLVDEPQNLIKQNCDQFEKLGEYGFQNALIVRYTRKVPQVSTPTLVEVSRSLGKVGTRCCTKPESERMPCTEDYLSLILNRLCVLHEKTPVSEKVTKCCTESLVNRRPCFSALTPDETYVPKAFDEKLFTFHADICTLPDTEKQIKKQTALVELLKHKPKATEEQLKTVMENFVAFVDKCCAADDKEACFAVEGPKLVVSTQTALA

B1: PA11P1C04 (antibody, human IgG1, V domains shown)
VH: QVQLQESGPGLVKPSETLSLTCTVSGGSISSYYWNWIRQPPGKGLEWIGYIYYSGSTNYNPSLKSRATISVDTSKNQFSLKLSSVTAADTAVYYCARANLFGVALRRVLGPFDYWGQGTLVTVSS
VL: DIQMTQSPSSLSASVGDRVTIACRASQSIANYLNWYQQKPGKAPKLLIYAASNLQSGVPSRFSGSGSGTDFTLTISSLQPEDFATYYCQQSYSTPYTFGQGTKLEIK
notes: human IgG1
Regarding B1, in test [1], the binding result is “no binding (tested: 2 ng/µL)”.

B2: PA01P2E06 (antibody, V domains shown)
VH: HVQLVQSGADVKKPGSSVKVSCKFSGGTFNNDSINWVRQAPGQGLEWMGVIMPFFGATRFAPKFQGRVTLTADKFTSTGYMELGSLKSDDTAVYYCARDKPPDDKWADYGMDVWGQGTTVTVSS
VL: SYELTQPPSVSVSPGQTARITCSGDALPKQYVYWYQQKTGQAPVLVIYKDTERPSGIPERFSGSTSGTTVTLTISGVQADDEADYFCQSADRNANYRVFGGGTKLTVL
notes: subject PA01; also called Clone PA01P2E06
As for B2, the binding result in test [2] is recorded as “no binding (tested: 2 ng/µL)”.

B3: PA12P3C01 (antibody, human IgG1, V domains shown)
VH: QVQLVQSGAEVKKPGASVKVSCQASGYTFTRYDINWVRQATGQGLEWMGWLNPKSGDTGYAQKFQGRVTMTRDTSISTAYMELTSLTSDDTAVYYCARGVDANHWGQGSLVTVSS
VL: DIVVTQSPDSLAVSLGERATINCKSSQSIFDTSSNKNYLAWFRQRPGQPPQLLIYWASTRESGVPDRFSGSGSGTDFTLTISSLQAEDVAVYYCHQYYSLPHAFGQGTKLEIK
notes: human IgG1
Turning to B3, the binding result in test [1] is reported as “no binding (tested: 2 ng/µL)”.

B4: PA01P2A12 (antibody, V domains shown)
VH: QVQLVQSGAEVKKPGASVMLSCKASGYIFTNSDINWVRQAPGQGPEWMGWMNPKSGNTGYEQKFQGRVTMTTNTSISTAYMELSRLRSEDTAVYYCARSTGAVAGNFDYWGQGTPVTVSS
VL: EIVMTQSPATLSVSLGDRATLSCRASQSISRNLAWYQQKPGQAPRLLIYGASIRITDIPARFSGSGSGTEFTLTISSLQSEDFAIYFCQQYNNWRTFGQGTRVELK
notes: subject PA01; also called Clone PA01P2A12
Turning to B4, the binding result in test [2] was “no binding (tested: 2 ng/µL)”.

B5: PA01P2B10 (antibody, V domains shown)
VH: QVQLQQWGAGLLKPSETLSLTCGVHGGSLNNYYWSWIRQPPGKGLEWIGEVYHSGSINYNPSLKSRVTMSVDTSKNQFSFNLSSVTAADTAVYYCARGAYDSRGFWTLDAFNTWGQGTMVIVSS
VL: DIQMTQSPSALSASLGDRVTITCRASESINSWLAWYQQKPGKAPKLLIYKASTLESGVPSRFSGSGSGTEFTLTISSLQPDDFATYYCHQYNRYSYTFGQGTKLDIK
notes: subject PA01; also called Clone PA01P2B10
For the molecule B5, the binding result in test [2] is “no binding (tested: 2 ng/µL)”.

B6: PA01P2A05 (antibody, V domains shown)
VH: QVQLQESGPGLVKPSQTLSLTCTVSGGSMRSGDYYWSWIRQPPGKGLEWIGYIYFTGSSYYNPSLKSRATISVDTSKNQFSLKLNSVTAADTAVYFCARGVDVDLTFFDCWGHGTLVTVSS
VL: SYVLTQPPSVSLAPGKTARITCGGNNIGNKSVHWYQQKPGQAPVLVIYYDSDRPSGIPERFSGSNSGNTATLTINRVEAGDEADYHCQVWDSSTDHRVFGEGTKLTVL
notes: subject PA01; also called Clone PA01P2A05
B6: in test [2], the binding result is reported as “no binding (tested: 2 ng/µL)”.

B7: PA01P1D06 (antibody, V domains shown)
VH: QVTLRESGPALVEVTQTVTLTCNFSGFSLHTRGMYVNWIRQPPGKALEWLAVINWDDDKYYTPSLKNRLTISKDTSKNQVVLTMTNMDPVDTATYYCARTDYGGYGPEGFDYWGQGTLVTVSS
VL: EIVMTQSPATLSVSPGESATLSCRASQSVRSNLAWYQQKPGQAPRLLIYGASTRAPGVPARFTGSESGREFTLTISSLQSEDFAVYYCQQYNNWPPYTFGQGTKLEIK
notes: subject PA01; also called Clone PA01P1D06
Consider B7, for which the binding result in test [2] was “no binding (tested: 2 ng/µL)”.

B8: PA01P2C05 (antibody, V domains shown)
VH: QLLLQESGPGLVKPSETLSLSCTVSAGSITSINYSWGWIRQPPGKGLEWIASVYFSGSIYYNPSLKSRVAISVDTSKNTFSLNLTSVTAADTAVYYCARLRLDTGRDSSGLSYREHFDYWAQGTLVTVSS
VL: DIQMTQSPSTLSASVGDRVTITCRASQSIGMWLAWFQQKPGKAPKLLIYKASTLESGVPSRFSGSGSGTEFTLTINSLQPDDFATYYCQQYNSYLFTFGPGTKVDIK
notes: subject PA01; also called Clone PA01P2C05
As for B8, in test [2], the binding result is “no binding (tested: 2 ng/µL)”.

B9: PA11P1C03 (antibody, human IgG1, V domains shown)
VH: EVQLVQSGGGLVKPGGSLRLSCAASGSTLTNYNINWVRQAPGKGLQWVSSISGTRDYTYYADSVVGRFTISRDNAKNSVYLQMNSLRAEDTAVYYCARGREVGGDYDSYDWGQGTLVTVSS
VL: DIQMTQSPSSLSASVGDRVTITCQASQDISTFLHWYQQKPGKAPSVLIYGASDLKTGVPSRFSGSGSGTHFTLTISSLQPEDIATYYCQQYDHLPLTFGGGTKVEIK
notes: human IgG1
Regarding B9, in test [1], the binding result is on record as “no binding (tested: 2 ng/µL)”.

B10: PA14P3H08 (antibody, human IgG1, V domains shown)
VH: QVQLVESGGGVVQPGRSLTLSCAASGFNFKTYGMHWVRQAPGKGLEWVAVIYHDGNDKFYADSVKGRFTISRDNSKNTLYVQMSSLRADDTAIYYCAKGIFSSGYHYGMDVWGQGTAVIVSS
VL: DIQMTQSPSSLSASLGDSVTITCLASQGIKEFLSWFQQKPGQAPKLLIYDASSSHSGVPSRFSGSGSATHFTLTISSLQPDDIATYYCQQYHQVPLTFGQGTRLEIK
notes: human IgG1
As to B10, the binding result in test [1] is “no binding (tested: 2 ng/µL)”.

B11: PA11P1G04 (antibody, human IgG1, V domains shown)
VH: EVQLVESGGGLVQPGGSLRLSCAASGFTFSSYWMSWVRQAPGKGLEWVANIKQDGSEKDYVDSVKGRFTISRDNAKNSLYLQLNSLRAEDTAVYYCARERSTQSSSWYVSSYYSYYGMDVWGQGTTVTVSS
VL: SSELTQDPAVSVALGQTVTITCQGDSLRSFYASWYQQKPGQAPVFVIYGKYNRPSGIPDRFSGSSSGNTASLTITGAQAEDEADYYCNSRDSSDNHLGVFGGGTKLTVL
notes: human IgG1
B11: the binding result in test [1] was “no binding (tested: 2 ng/µL)”.

B12: PA11P1F03 (antibody, human IgG1, V domains shown)
VH: QVQLQQWGAGLLKPSETLSLNCTVYHGSLSTSYWSWIRQPPGRGLEWIGEINDSGATNYNPSLKSRVIISVDTSKDQFSLKLTSVTAADTAMYYCARAPLLWVGESFFYYFDSWGQGILVTVSS
VL: DIQMTQSPSSLSASVGDRVSITCRAGQSIDTYLNWYQHKPGKAPDLLIYTTSTLHSGVPSRFSGSGSGTDFTLTITSLQPEDFAIYYCQQSYKSPYTFGQGTKVEIK
notes: human IgG1
As to B12, the binding result in test [1] is recorded as “no binding (tested: 2 ng/µL)”.

B13: PA12P3E04 (antibody, human IgG1, V domains shown)
VH: EVKVVESGGGLVQPGGSLRLSCAASEFTFTYYWMSWIRQAPGKGLEWVANVNGDATEKYYVDSVKGRFTISRDNPKKTVYLQMNSLRVEDTAVYYCARVGTTVVNDGFDLWGLGTMVTVSS
VL: SYVLTQSHSVSVAPGQTARITCGGENIGGKGVHWYQQKPGQAPLLVVSSDTGRRSVTPDRFSGSNSGDTATLIISRVEAGDEADYYCQVWDPTSEYVFGSGTKVTVL
notes: human IgG1
For the molecule B13, the binding result in test [1] is on record as “no binding (tested: 2 ng/µL)”.

B14: PA01P2B04 (antibody, V domains shown)
VH: QVQLQQWGAGLLKPSETLSLTCTVIGTSFSNYYWSWIRQPPGKGLQWIGEITHSDSANYNPSLKSRVIISIDSSKNQLSLNLSSVTAADTAVYYCARGSKDYYDRSTFSWFDPWGQGTLVTVSS
VL: EIVMTQSPATLSVSPGERATLSCRASQNISNKLAWYQQKPGQAPRLLIYDASTRATGVPARFSCSVSGTAFTLTINRLQSEDFAVYYCQQYYYWPPPYTFGHGTKLEIK
notes: subject PA01; also called Clone PA01P2B04
B14: in test [2], the binding result is “no binding (tested: 2 ng/µL)”.

B15: PA14P1D11 (antibody, human IgG1, V domains shown)
VH: EVQLLESGGGLVQPGGSLKLSCVASGFTFSSYAMMWVRQAPGKGLEWISSISSSGGSTYYADSVKGRFTISRDNSKNTLYLQMNSLRVEDTAVYYCAKSHCSTTSCPRAFYYYGMDVWGQGTTVTVSS
VL: DIQMTQSPSSLSASVGDRVTITCRASQTITTYLNWYQQKPGKAPKLLIYAASSLQSGVPSRFSGSGSGTDFTLSLSSLQPEDSATYYCQQSYSTLGAFGGGTKVEIK
notes: subject PA14; also called Clone PA14P1D11
Turning to B15, the binding result in test [1] is “no binding (tested: 2 ng/µL)”.

B16: PA11P1D12 (antibody, human IgG1, V domains shown)
VH: QVQLRVSGPGLVNPSETLSLTCIVSGDSLRDYYWSWIRQSPGKGLEWIGYVTESGGAHYNPSLESRVTISVDASKTQFSLNLKSVTAADTAVYYCARDAYSSTWYTVGWFDPWGPGSLVTVSS
VL: EIVLTQSPATLSLSPGERATLSCRASQDVGVYLAWYQQKPGQAPRLIIYDASDRVSGVPARFTGSGSGTDFTLTITSLEPEDFAVYFCQQRTSGLTFGGGTTLEIK
notes: human IgG1
For B16, in test [1], the binding result is given as “no binding (tested: 2 ng/µL)”.

B17: PA11P1E01 (antibody, human IgG1, V domains shown)
VH: QVQLVQSGSELRRPGASVKVSCKTSGYAFTHFAMNWLRQAPGQGLEWLGWINTHSGNPTYAQGFTGRIVFSLDTSAGTAYLEISSLKAEDTAVYYCARERYFDFWGQGTLVAVSS
VL: QSVLTQPPSASGTPGQRVTISCSGTNSNIGKNFLYWYQQLPGTAPKLLIFSSNQRPSGVPDRFSGSKSGTSASLAISGLRSEDEADYYCAAWDDNLSGWVFGGGTKVTVL
notes: human IgG1
Turning to B17, the binding result in test [1] is on record as “no binding (tested: 2 ng/µL)”.

B18: PA11P1C11 (antibody, human IgG1, V domains shown)
VH: B17 VH with R13K, V20L, K23R, A28T, T30I, I68F, T74V, S85G, T109A
VL: B17 VL with N26S, L40V, F50Y, N95S
notes: human IgG1
B18: in test [1], the binding result is “no binding (tested: 2 ng/µL)”.

B19: PA01P2B03 (antibody, V domains shown)
VH: EVQLVQSGAEVKKPGESLKISCKGSGYNFTSSWIGWVRQMPGKGLEWMGIIHPGDSDTRYSPSFQGQVTISADKSLTTAFLQWSSLKTSDTAIYYCARHGSTMLWGDAFDIWGQGTMVTVSS
VL: SYELTQPPSVSLSPGQTARITCSGDALPKHYAYWYQQKPGQAPVLVIYKDTERPSGIPERFSGSSSGTTVTLTISGVQAEDEADYYCQSSDSTGEVFGGGTKLTVL
notes: subject PA01; also called Clone PA01P2B03
Turning to B19, in test [2], the binding result is reported as “no binding (tested: 2 ng/µL)”.

B20: PA01P2E07 (antibody, V domains shown)
VH: QLQLQESGSGLVKPSQTLSLTCAVSGGSITSGTYSWTWIRQSPEKGLEWIGYIYYTGSTYYNPSLGRRVTISGDTSNNEFSLNLKSVTAADTAVYYCARGIHRGGVLDFWGQGILVTVSS
VL: EIVLTQSPATLPLSPGERATLSCRASQSLDKYLAWYQQKPGQAPRLLIYDTSKRATGIPARFSGSGSGTDFTLTISSLEPEDFAVYFCQQRNNWPPYTFGQGTKVEMK
notes: subject PA01; also called Clone PA01P2E07
B20: the binding result in test [2] is recorded as “no binding (tested: 2 ng/µL)”.

The values above are taken from patent US20210246195A1 (CZ BIOHUB SF, published 2021).
